What was measured:
Assay in all cases: protein-fragment complementation
Rvs167 = Rvs167 (UniProt P39743)
Chc1 = Chc1 (UniProt P22137)
Sla1 = Sla1 (UniProt P32790)
Bbc1 = Bbc1 (UniProt P47068)
Srv2 = Srv2 (UniProt P17555)
Pab1 = Pab1 (UniProt P04147)
Yor1 = Yor1 (UniProt P53049)
Osh2 = Osh2 (UniProt Q12451)
Tdh3 = Tdh3 (UniProt P00359)
Myo5 = Myo5 (UniProt Q04439)
Pfk1 = Pfk1 (UniProt P16861)
Ysc84 = Ysc84 (UniProt P32793)
Abp1 = Abp1 (UniProt P15891)
Pan1 = Pan1 (UniProt P32521)
Sac6 = Sac6 (UniProt P32599)
Lsb3 = Lsb3 (UniProt P43603)
Cdc10 = Cdc10 (UniProt P25342)
Pkh2 = target: Pkh2
Ste20 = Ste20 (UniProt Q03497)
Bzz1 = Bzz1 (UniProt P38822)
Hsp104 = Hsp104 (UniProt P31539)
Ssz1 = Ssz1 (UniProt P38788)
Cdc3 = Cdc3 (UniProt P32457)
Ssb2 = Ssb2 (UniProt P40150)
Las17 = Las17 (UniProt Q12446)
Hek2 = Hek2 (UniProt P38199)
Ygl242c = Ygl242c (UniProt P53066)
Sfk1 = Sfk1 (UniProt P35735)
Ssb1 = Ssb1 (UniProt P11484)
Sbp1 = Sbp1 (UniProt P10080)
Mid2 = Mid2 (UniProt P36027)
Smi1 = Smi1 (UniProt P32566)
Aim21 = Aim21 (UniProt P40563)
Nap1 = Nap1 (UniProt P25293)
Arc40 = Arc40 (UniProt P38328)
Arc15 = Arc15 (UniProt P40518)
Syp1 = Syp1 (UniProt P25623)
Vrp1 = Vrp1 (UniProt P37370)
Arc19 = Arc19 (UniProt P33204)
Bmh1 = Bmh1 (UniProt P29311)
Arc18 = Arc18 (UniProt Q05933)
Sla2 = Sla2 (UniProt P33338)
Ssa1 = Ssa1 (UniProt P10591)
Tif4631 = Tif4631 (UniProt P39935)
Cmd1 = Cmd1 (UniProt P06787)

Sequence of UniProt P17555 (P17555 whole entry): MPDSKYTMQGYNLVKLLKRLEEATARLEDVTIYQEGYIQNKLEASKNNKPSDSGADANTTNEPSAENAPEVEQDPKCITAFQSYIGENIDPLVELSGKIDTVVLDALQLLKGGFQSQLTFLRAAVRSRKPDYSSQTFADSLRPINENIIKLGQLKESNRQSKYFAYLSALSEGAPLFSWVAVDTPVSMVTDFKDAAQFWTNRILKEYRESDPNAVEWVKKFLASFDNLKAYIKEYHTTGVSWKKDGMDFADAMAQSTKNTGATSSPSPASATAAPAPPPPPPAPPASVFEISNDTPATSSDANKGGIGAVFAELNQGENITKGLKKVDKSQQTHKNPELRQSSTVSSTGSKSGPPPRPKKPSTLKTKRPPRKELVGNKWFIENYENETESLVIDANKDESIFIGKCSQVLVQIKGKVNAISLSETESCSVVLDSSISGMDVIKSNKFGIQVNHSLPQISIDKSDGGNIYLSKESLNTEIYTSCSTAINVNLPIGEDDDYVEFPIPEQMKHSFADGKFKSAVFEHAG
Sequence of UniProt P04147 (P04147 whole entry): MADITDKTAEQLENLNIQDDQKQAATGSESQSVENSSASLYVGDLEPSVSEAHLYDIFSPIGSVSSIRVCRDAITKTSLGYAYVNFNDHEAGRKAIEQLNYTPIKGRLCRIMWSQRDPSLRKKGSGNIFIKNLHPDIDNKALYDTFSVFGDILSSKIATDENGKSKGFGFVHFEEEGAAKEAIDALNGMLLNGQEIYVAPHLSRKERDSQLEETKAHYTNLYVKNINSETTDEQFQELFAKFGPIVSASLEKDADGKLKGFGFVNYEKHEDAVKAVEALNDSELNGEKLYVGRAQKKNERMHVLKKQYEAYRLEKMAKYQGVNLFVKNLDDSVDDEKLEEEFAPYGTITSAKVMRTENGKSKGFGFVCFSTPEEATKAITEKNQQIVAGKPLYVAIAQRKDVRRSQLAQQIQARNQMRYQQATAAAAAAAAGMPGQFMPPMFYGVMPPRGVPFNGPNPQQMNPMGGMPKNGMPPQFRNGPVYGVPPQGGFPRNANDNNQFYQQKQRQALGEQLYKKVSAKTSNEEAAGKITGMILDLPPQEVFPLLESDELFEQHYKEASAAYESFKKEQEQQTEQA
Sequence of UniProt P32793 (P32793 whole entry): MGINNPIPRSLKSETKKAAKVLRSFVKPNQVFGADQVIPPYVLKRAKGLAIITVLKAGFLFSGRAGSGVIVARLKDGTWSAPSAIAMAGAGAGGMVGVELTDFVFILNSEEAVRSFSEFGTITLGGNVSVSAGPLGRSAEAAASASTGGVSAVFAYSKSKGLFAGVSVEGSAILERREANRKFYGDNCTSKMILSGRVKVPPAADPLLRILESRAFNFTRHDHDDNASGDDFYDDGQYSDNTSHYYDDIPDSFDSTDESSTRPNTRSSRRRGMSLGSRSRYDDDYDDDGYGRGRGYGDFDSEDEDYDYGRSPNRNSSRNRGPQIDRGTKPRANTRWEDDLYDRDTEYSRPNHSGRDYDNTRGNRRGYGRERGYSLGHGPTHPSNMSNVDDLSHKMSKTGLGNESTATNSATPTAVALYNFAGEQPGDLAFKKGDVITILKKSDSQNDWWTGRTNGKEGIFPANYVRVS
Sequence of UniProt P32521 (P32521 whole entry): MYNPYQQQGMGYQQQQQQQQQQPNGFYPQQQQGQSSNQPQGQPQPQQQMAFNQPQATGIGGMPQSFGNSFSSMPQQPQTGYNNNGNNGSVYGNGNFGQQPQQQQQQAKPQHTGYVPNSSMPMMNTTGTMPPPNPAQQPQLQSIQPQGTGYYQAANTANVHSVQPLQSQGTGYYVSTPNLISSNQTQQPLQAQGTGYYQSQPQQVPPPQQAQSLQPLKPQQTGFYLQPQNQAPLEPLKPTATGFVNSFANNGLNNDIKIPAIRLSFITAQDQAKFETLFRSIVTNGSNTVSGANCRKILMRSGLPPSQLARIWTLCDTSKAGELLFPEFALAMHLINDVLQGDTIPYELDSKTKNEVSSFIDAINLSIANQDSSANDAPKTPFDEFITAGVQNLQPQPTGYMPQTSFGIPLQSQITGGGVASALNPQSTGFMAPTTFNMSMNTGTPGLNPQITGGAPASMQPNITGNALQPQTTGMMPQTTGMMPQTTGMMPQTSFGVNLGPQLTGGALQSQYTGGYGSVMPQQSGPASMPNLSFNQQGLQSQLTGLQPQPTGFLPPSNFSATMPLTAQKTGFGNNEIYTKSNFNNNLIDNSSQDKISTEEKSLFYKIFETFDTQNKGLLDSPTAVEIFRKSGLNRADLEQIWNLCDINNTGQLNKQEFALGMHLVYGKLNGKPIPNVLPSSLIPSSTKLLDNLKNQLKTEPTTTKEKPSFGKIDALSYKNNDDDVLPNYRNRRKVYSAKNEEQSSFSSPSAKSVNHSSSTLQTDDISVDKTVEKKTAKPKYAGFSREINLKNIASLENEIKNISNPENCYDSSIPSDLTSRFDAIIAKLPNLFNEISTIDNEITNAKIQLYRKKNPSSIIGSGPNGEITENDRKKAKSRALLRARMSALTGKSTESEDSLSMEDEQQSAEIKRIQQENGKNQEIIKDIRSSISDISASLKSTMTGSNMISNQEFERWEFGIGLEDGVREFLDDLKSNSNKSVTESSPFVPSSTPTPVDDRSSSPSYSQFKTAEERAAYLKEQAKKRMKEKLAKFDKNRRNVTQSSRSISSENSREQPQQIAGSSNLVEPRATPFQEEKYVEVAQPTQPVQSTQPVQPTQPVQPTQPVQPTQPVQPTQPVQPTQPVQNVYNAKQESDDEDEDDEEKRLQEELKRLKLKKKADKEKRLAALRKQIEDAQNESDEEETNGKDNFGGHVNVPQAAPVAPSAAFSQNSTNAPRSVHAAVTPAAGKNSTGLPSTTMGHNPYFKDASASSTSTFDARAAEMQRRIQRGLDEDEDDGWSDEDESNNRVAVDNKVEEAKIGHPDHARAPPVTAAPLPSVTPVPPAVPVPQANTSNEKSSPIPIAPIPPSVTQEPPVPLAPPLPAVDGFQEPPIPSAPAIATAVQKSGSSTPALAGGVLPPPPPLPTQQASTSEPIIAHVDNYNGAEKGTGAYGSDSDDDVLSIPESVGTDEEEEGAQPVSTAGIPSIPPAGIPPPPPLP
Sequence of UniProt P32599 (P32599 whole entry): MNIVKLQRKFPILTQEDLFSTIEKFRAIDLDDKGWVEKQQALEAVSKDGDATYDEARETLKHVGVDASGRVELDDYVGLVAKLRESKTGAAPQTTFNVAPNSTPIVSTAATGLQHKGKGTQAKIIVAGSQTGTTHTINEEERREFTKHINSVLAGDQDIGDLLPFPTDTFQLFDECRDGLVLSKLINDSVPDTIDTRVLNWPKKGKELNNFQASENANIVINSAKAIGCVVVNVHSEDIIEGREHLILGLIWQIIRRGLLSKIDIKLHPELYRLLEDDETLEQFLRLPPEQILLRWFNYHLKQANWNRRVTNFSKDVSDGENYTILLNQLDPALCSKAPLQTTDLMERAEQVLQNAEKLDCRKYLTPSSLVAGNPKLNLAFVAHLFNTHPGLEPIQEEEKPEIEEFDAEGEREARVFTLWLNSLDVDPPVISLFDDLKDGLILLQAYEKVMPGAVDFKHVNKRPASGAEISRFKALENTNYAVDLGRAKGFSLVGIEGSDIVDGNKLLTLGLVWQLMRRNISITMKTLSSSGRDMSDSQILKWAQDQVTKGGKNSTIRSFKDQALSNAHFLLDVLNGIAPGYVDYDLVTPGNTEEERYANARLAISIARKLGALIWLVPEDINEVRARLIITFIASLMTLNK
Sequence of UniProt P10080 (P10080 whole entry): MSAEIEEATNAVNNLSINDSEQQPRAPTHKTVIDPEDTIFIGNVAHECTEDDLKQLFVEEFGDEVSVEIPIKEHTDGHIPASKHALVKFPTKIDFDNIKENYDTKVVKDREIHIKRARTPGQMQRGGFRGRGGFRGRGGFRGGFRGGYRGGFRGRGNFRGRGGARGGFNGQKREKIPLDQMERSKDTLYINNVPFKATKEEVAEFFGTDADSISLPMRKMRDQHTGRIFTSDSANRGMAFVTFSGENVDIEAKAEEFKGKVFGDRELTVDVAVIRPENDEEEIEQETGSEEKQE
Sequence of UniProt P16861 (P16861 whole entry): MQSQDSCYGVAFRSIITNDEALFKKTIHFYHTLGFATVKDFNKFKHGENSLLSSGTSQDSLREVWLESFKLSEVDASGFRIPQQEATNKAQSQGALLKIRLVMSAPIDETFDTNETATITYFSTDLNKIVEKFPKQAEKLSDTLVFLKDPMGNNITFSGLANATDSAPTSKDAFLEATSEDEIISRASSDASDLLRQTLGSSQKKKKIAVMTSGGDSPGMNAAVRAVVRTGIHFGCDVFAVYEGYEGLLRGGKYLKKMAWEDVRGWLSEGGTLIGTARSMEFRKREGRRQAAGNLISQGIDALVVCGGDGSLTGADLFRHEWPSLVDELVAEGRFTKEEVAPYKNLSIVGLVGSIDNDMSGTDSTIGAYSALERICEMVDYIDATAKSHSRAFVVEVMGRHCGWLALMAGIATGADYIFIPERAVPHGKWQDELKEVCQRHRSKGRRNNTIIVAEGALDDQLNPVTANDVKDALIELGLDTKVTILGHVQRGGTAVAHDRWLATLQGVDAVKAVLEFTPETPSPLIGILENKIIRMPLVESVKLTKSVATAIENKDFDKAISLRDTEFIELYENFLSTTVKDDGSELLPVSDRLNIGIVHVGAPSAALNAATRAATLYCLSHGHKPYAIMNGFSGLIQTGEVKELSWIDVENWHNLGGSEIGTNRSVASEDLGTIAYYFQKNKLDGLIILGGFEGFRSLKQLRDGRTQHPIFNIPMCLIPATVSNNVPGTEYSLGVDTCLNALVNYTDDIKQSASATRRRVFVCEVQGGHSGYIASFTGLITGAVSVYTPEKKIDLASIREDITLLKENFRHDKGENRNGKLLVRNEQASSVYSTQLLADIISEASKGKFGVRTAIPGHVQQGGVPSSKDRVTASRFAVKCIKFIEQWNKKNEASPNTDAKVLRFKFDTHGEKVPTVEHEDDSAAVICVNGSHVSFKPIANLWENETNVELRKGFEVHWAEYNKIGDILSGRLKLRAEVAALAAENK

In the case of “Myo5 with SH3 AncD (from UniProt Q04439)”, the interaction score (Rvs167) is reported as 0.273, the interaction score (Chc1) is reported as 0.589 and the interaction score (Sla1) is reported as 0.309. For the same substance, the interaction score (Bbc1) was 0.562, the interaction score (Srv2) was 0.522 and the interaction score (Pab1) was 0.805. The interaction score (Yor1) was 0.254, the interaction score (Osh2) was 0.352 and the interaction score (Tdh3) was 0.968. It also gave an interaction score (Myo5) of 0.862, an interaction score (Pfk1) of 0.862 and an interaction score (Ysc84) of 0.318. For the same substance, the interaction score (Abp1) was 0.878, the interaction score (Pan1) was 0.87 and the interaction score (Sac6) was 0.793. For the same substance, the interaction score (Lsb3) was 0.487, the interaction score (Cdc10) was 0.31 and the interaction score (Pkh2) was 0.0507. The interaction score (Ste20) was 0.718, the interaction score (Bzz1) was 0.701 and the interaction score (Hsp104) was 0.77. It also gave an interaction score (Ssz1) of 0.848, an interaction score (Cdc3) of 0.353 and an interaction score (Ssb2) of 0.938. For the same substance, the interaction score (Las17) was 0.785, the interaction score (Hek2) was 0.351 and the interaction score (Ygl242c) was 0.949. For the same substance, the interaction score (Sfk1) was 0.545, the interaction score (Ssb1) was 0.935 and the interaction score (Sbp1) was 0.83. The interaction score (Mid2) was 0.827, the interaction score (Smi1) was 0.551 and the interaction score (Aim21) was 0.647. It also gave an interaction score (Nap1) of 0.463, an interaction score (Arc40) of 0.952 and an interaction score (Arc15) of 0.887. The interaction score (Syp1) was 0.338, the interaction score (Vrp1) was 0.855 and the interaction score (Arc19) was 0.655. For the same substance, the interaction score (Bmh1) was 0.838, the interaction score (Arc18) was 0.825 and the interaction score (Sla2) was 0.473. It also gave an interaction score (Ssa1) of 0.903, an interaction score (Tif4631) of 0.687 and an interaction score (Cmd1) of 0.278.
“Myo5 with SH3 AncA_3 (from UniProt Q04439)” showed an interaction score (Rvs167) of 0.501, an interaction score (Chc1) of 0.553 and an interaction score (Sla1) of 0.51. The interaction score (Bbc1) was 0.698, the interaction score (Srv2) was 0.591 and the interaction score (Pab1) was 0.756. It also gave an interaction score (Yor1) of 0.467, an interaction score (Osh2) of 0.703 and an interaction score (Myo5) of 0.869. The interaction score (Pfk1) was 0.807, the interaction score (Ysc84) was 0.455 and the interaction score (Abp1) was 0.865. The interaction score (Pan1) was 0.876, the interaction score (Sac6) was 0.775 and the interaction score (Lsb3) was 0.595. For the same substance, the interaction score (Cdc10) was 0.404, the interaction score (Pkh2) was 0.142 and the interaction score (Ste20) was 0.424. The interaction score (Bzz1) was 0.767, the interaction score (Hsp104) was 0.724 and the interaction score (Ssz1) was 0.776. For the same substance, the interaction score (Cdc3) was 0.466, the interaction score (Ssb2) was 0.881 and the interaction score (Las17) was 0.823. The interaction score (Hek2) was 0.366, the interaction score (Ygl242c) was 0.881 and the interaction score (Sfk1) was 0.691. It also gave an interaction score (Ssb1) of 0.889, an interaction score (Sbp1) of 0.772 and an interaction score (Mid2) of 0.821. The interaction score (Smi1) was 0.514, the interaction score (Aim21) was 0.715 and the interaction score (Nap1) was 0.444. It also gave an interaction score (Arc40) of 0.902, an interaction score (Arc15) of 0.837 and an interaction score (Syp1) of 0.513. The interaction score (Vrp1) was 0.862, the interaction score (Arc19) was 0.724 and the interaction score (Bmh1) was 0.762. The interaction score (Arc18) was 0.812, the interaction score (Sla2) was 0.59 and the interaction score (Ssa1) was 0.849. The interaction score (Tif4631) was 0.621 and the interaction score (Cmd1) was 0.405.
With “Myo5 with SH3 optMyo5 (from UniProt Q04439)” the interaction score (Rvs167) was 0.539, the interaction score (Chc1) was 0.603 and the interaction score (Sla1) was 0.551. It also gave an interaction score (Bbc1) of 0.758, an interaction score (Srv2) of 0.658 and an interaction score (Pab1) of 0.794. It also gave an interaction score (Yor1) of 0.521, an interaction score (Osh2) of 0.768 and an interaction score (Tdh3) of 0.97. The interaction score (Myo5) was 0.915, the interaction score (Pfk1) was 0.877 and the interaction score (Ysc84) was 0.514. It also gave an interaction score (Abp1) of 0.903, an interaction score (Pan1) of 0.926 and an interaction score (Sac6) of 0.838. For the same substance, the interaction score (Lsb3) was 0.639, the interaction score (Cdc10) was 0.423 and the interaction score (Pkh2) was 0.124. The interaction score (Ste20) was 0.446, the interaction score (Bzz1) was 0.814 and the interaction score (Hsp104) was 0.762. It also gave an interaction score (Ssz1) of 0.841, an interaction score (Cdc3) of 0.493 and an interaction score (Ssb2) of 0.932. The interaction score (Las17) was 0.875, the interaction score (Hek2) was 0.412 and the interaction score (Ygl242c) was 0.948. The interaction score (Sfk1) was 0.723, the interaction score (Ssb1) was 0.944 and the interaction score (Sbp1) was 0.834. For the same substance, the interaction score (Mid2) was 0.866, the interaction score (Smi1) was 0.568 and the interaction score (Aim21) was 0.758. It also gave an interaction score (Nap1) of 0.509, an interaction score (Arc40) of 0.968 and an interaction score (Arc15) of 0.902. The interaction score (Syp1) was 0.572, the interaction score (Vrp1) was 0.916 and the interaction score (Arc19) was 0.769. For the same substance, the interaction score (Bmh1) was 0.831, the interaction score (Sla2) was 0.65 and the interaction score (Ssa1) was 0.908. For the same substance, the interaction score (Tif4631) was 0.671 and the interaction score (Cmd1) was 0.319.
Work on “Myo5 with SH3 AncA (from UniProt Q04439)” yielded an interaction score (Rvs167) of 0.525, an interaction score (Chc1) of 0.583 and an interaction score (Sla1) of 0.527. It also gave an interaction score (Bbc1) of 0.722, an interaction score (Srv2) of 0.62 and an interaction score (Pab1) of 0.783. For the same substance, the interaction score (Yor1) was 0.473, the interaction score (Osh2) was 0.738 and the interaction score (Tdh3) was 0.947. For the same substance, the interaction score (Myo5) was 0.889, the interaction score (Ysc84) was 0.458 and the interaction score (Abp1) was 0.89. It also gave an interaction score (Pan1) of 0.908, an interaction score (Sac6) of 0.801 and an interaction score (Lsb3) of 0.616. It also gave an interaction score (Cdc10) of 0.39, an interaction score (Pkh2) of 0.128 and an interaction score (Ste20) of 0.447. The interaction score (Bzz1) was 0.801, the interaction score (Hsp104) was 0.755 and the interaction score (Ssz1) was 0.807. For the same substance, the interaction score (Cdc3) was 0.481, the interaction score (Ssb2) was 0.915 and the interaction score (Las17) was 0.862. For the same substance, the interaction score (Hek2) was 0.391, the interaction score (Ygl242c) was 0.917 and the interaction score (Sfk1) was 0.711. The interaction score (Ssb1) was 0.918, the interaction score (Sbp1) was 0.792 and the interaction score (Mid2) was 0.848. The interaction score (Smi1) was 0.53, the interaction score (Aim21) was 0.744 and the interaction score (Nap1) was 0.489. It also gave an interaction score (Arc40) of 0.937, an interaction score (Arc15) of 0.865 and an interaction score (Syp1) of 0.526. For the same substance, the interaction score (Vrp1) was 0.892, the interaction score (Arc19) was 0.754 and the interaction score (Bmh1) was 0.791. The interaction score (Arc18) was 0.844, the interaction score (Sla2) was 0.633 and the interaction score (Ssa1) was 0.885. The interaction score (Tif4631) was 0.664 and the interaction score (Cmd1) was 0.216.
Substance “Myo5 with SH3 AncC (from UniProt Q04439)” has an interaction score (Rvs167) of 0.404, an interaction score (Chc1) of 0.578 and an interaction score (Sla1) of 0.489. For the same substance, the interaction score (Bbc1) was 0.712, the interaction score (Srv2) was 0.579 and the interaction score (Pab1) was 0.783. The interaction score (Yor1) was 0.395, the interaction score (Osh2) was 0.654 and the interaction score (Tdh3) was 0.949. It also gave an interaction score (Myo5) of 0.885, an interaction score (Ysc84) of 0.431 and an interaction score (Abp1) of 0.887. For the same substance, the interaction score (Pan1) was 0.896, the interaction score (Sac6) was 0.807 and the interaction score (Lsb3) was 0.584. The interaction score (Cdc10) was 0.334, the interaction score (Pkh2) was 0.0849 and the interaction score (Ste20) was 0.33. For the same substance, the interaction score (Bzz1) was 0.782, the interaction score (Hsp104) was 0.76 and the interaction score (Ssz1) was 0.81. The interaction score (Cdc3) was 0.438, the interaction score (Ssb2) was 0.92 and the interaction score (Las17) was 0.843. The interaction score (Hek2) was 0.421, the interaction score (Ygl242c) was 0.919 and the interaction score (Sfk1) was 0.685. For the same substance, the interaction score (Ssb1) was 0.93, the interaction score (Sbp1) was 0.816 and the interaction score (Mid2) was 0.846. For the same substance, the interaction score (Smi1) was 0.555, the interaction score (Aim21) was 0.727 and the interaction score (Nap1) was 0.469. It also gave an interaction score (Arc40) of 0.946, an interaction score (Arc15) of 0.874 and an interaction score (Syp1) of 0.48. It also gave an interaction score (Vrp1) of 0.89, an interaction score (Arc19) of 0.72 and an interaction score (Bmh1) of 0.806. The interaction score (Arc18) was 0.85, the interaction score (Sla2) was 0.575 and the interaction score (Ssa1) was 0.883. For the same substance, the interaction score (Tif4631) was 0.659 and the interaction score (Cmd1) was 0.412.

Source: doi:10.1101/2023.03.09.531510
